T1: cynomolgus monkey FcγRIIa3 extracellular domain with C-terminal His-tag (cynomolgus monkey)
T1 construct: also called cyno FcgRIIa3; cynoFcγRIIa3
T1 chain: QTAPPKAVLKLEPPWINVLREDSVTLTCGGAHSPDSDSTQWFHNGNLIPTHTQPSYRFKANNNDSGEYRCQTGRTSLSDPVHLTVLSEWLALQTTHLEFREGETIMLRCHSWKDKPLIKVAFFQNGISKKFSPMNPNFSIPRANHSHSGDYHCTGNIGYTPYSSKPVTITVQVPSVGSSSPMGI

T2: human FcγRIIaR extracellular domain with C-terminal His-tag (human, UniProt P12318 34-217)
T2 construct: also called human FcgRIIaR; FcγRIIa (type R)
T2 chain: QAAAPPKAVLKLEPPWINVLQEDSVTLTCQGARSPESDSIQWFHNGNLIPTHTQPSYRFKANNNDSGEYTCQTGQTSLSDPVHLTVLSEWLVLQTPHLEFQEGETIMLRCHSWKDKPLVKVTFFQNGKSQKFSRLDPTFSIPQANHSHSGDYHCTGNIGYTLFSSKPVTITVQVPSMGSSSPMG

T3: cynomolgus monkey FcγRIIb extracellular domain with C-terminal His-tag (cynomolgus monkey)
T3 construct: also called cyno FcgRIIb; cynoFcγRIIb
T3 chain: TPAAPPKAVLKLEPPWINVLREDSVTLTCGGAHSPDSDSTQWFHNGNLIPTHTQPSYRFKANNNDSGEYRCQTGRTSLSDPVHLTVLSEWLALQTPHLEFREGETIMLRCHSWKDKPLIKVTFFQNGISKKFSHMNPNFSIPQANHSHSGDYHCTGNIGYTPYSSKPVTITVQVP

T4: cynomolgus monkey FcγRIIa1 extracellular domain with C-terminal His-tag (cynomolgus monkey)
T4 construct: also called cyno FcgRIIa1; cynoFcγRIIa1
T4 chain: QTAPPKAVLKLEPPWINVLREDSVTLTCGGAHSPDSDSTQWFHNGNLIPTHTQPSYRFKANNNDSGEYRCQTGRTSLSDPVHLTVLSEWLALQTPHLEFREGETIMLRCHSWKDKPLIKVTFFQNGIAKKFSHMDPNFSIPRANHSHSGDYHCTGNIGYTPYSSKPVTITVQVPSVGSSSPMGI

T5: human FcγRIIb extracellular domain with C-terminal His-tag (human, UniProt P31994 43-217)
T5 construct: also called human FcgRIIb
T5 sequence: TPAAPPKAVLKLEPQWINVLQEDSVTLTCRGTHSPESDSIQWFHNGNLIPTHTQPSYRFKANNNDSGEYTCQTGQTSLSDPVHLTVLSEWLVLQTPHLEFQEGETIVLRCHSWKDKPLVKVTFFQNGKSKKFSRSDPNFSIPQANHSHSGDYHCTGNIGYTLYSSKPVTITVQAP

T6: cynomolgus monkey FcγRIIa2 extracellular domain with C-terminal His-tag (cynomolgus monkey)
T6 construct: also called cyno FcgRIIa2; cynoFcγRIIa2
T6 chain: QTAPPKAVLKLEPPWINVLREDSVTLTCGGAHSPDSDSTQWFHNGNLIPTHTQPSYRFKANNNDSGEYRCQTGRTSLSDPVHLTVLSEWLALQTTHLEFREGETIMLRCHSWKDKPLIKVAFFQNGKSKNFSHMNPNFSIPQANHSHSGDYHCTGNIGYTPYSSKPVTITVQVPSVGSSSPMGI

T7: human FcγRIIaH extracellular domain with C-terminal His-tag (human, UniProt P12318 34-217)
T7 construct: also called human FcgRIIaH; FcγRIIa (type H)
T7 sequence: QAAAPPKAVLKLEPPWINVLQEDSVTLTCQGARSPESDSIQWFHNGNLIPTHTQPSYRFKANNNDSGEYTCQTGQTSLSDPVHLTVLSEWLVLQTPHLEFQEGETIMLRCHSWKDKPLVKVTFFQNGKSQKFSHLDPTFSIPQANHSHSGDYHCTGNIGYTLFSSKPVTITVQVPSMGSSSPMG


Legend:
[1] = target: T1, cynomolgus monkey FcγRIIa3 …; assay: SPR (Biacore), KD of SG1 divided by KD of variant
[2] = target: T2, human FcγRIIaR extracellular domain …; assay: SPR (Biacore), KD of SG1 divided by KD of variant
[3] = target: T3, cynomolgus monkey FcγRIIb extracellular …; assay: SPR (Biacore), KD of SG1 divided by KD of variant
[4] = target: T3, cynomolgus monkey FcγRIIb extracellular …; assay: SPR (Biacore), antibody captured, FcgR as analyte
[5] = target: T4, cynomolgus monkey FcγRIIa1 …; assay: SPR (Biacore), antibody captured, FcgR as analyte
[6] = target: T5, human FcγRIIb extracellular domain with …; assay: SPR (Biacore), KD of SG1 divided by KD of variant
[7] = target: T6, cynomolgus monkey FcγRIIa2 …; assay: SPR (Biacore), antibody captured, FcgR as analyte
[8] = target: T7, human FcγRIIaH extracellular domain …; assay: SPR (Biacore), antibody captured, FcgR as analyte
[9] = target: T8, human FcγRIIIaV extracellular domain with C-terminal His-tag (human, UniProt P08637 17-208); assay: SPR (Biacore), antibody captured, FcgR as analyte
T8 construct: also called human FcgRIIIaV
T8 sequence (P08637 17-208 F176V): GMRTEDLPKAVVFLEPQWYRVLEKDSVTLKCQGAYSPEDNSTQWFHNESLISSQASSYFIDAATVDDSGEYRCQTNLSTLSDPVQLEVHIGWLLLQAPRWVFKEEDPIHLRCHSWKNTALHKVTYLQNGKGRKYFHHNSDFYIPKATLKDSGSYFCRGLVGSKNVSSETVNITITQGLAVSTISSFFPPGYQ

Row | Binder | KD fold (SG1 = 1) [1] [fold] | KD fold (SG1 = 1) [2] [fold] | KD fold (SG1 = 1) [3] [fold] | Kd [4] [nM] | further results
1 | M103205H795-MY283 / M103202L889-SK1 (antibody, human IgG1, kappa, name in EU numbering) heavy: QVTLKESGPVLVKPTETLTLTCTVSGIDLSHDDISWVRQAPGKGLEWVGIISYAGSTYYASWAKGRLTISKDTSKNQVVLTMTNMDPVDTATYYCARGVPAYSHGGDLWGQGTLVTVSSASTKGPSVFPLAPSSKSTSGGTAALGCLVKDYFPEPVTVSWNSGALTSGVHTFPAVLQSSGLYSLSSVVTVPSSSLGTQTYICNVNHKPSNTKVDKKVEPKSCDKTHTCPPCPAPELLTGPSVFLFPPKPKDTLMISRTPEVTCVVVDVSDEDPEVKFNWYVDGVEVHNAKTKPREELYNSTYRVVSVLTVLHQDWLNGKEYKCKVSNKALPKPIEKTISKAKGQPREPQVYTLPPSREEMTKNQVSLTCLVKGFYPSDIAVEWESNGQPENNYKTTPPVLDSDGSFFLYSKLTVDKSRWQQGNVFSCSVMHEALHNHYTQKSLSLSP light: DIVMTQSPATLSLSPGERATLSCTSSQSVYHANWLSWFQQKPGQPPKLLIYWASTLAYGVPSRFSGSGSGTDFTLTISSLQPEDAATYYCAGGYGGGRYAFGQGTKVEIKRTVAAPSVFIFPPSDEQLKSGTASVVCLLNNFYPREAKVQWKVDNALQSGNSQESVTEQDSKDSTYSLSSTLTLSKADYEKHKVYACEVTHQGLSSPVTKSFNRGEC | 3.9 | 3.1 |  |  | 
2 | M103205H795-MY380 / M103202L889-SK1 (antibody, human IgG1, kappa, name in EU numbering) heavy: QVTLKESGPVLVKPTETLTLTCTVSGIDLSHDDISWVRQAPGKGLEWVGIISYAGSTYYASWAKGRLTISKDTSKNQVVLTMTNMDPVDTATYYCARGVPAYSHGGDLWGQGTLVTVSSASTKGPSVFPLAPSSKSTSGGTAALGCLVKDYFPEPVTVSWNSGALTSGVHTFPAVLQSSGLYSLSSVVTVPSSSLGTQTYICNVNHKPSNTKVDKKVEPKSCDKTHTCPPCPAPELLNGPSVFLFPPKPKDTLMISRTPEVTCVVVDVSEEDPEVKFNWYVDGVEVHNAKTKPREEQYNSTYRVVSVLTVLHQDWLNGKEYKCKVSNKALPKPIEKTISKAKGQPREPQVYTLPPSREEMTKNQVSLTCLVKGFYPSDIAVEWESNGQPENNYKTTPKVLDSDGSFFLYSKLTVDKSRWQQGNVFSCSVMHEALHNHYTQKSLSLSP light: DIVMTQSPATLSLSPGERATLSCTSSQSVYHANWLSWFQQKPGQPPKLLIYWASTLAYGVPSRFSGSGSGTDFTLTISSLQPEDAATYYCAGGYGGGRYAFGQGTKVEIKRTVAAPSVFIFPPSDEQLKSGTASVVCLLNNFYPREAKVQWKVDNALQSGNSQESVTEQDSKDSTYSLSSTLTLSKADYEKHKVYACEVTHQGLSSPVTKSFNRGEC | 5.2 |  |  |  | Kd [5]: 930 nM
3 | M103205H795-MY388 (first row so labelled: G236L/H268D/Q295L/K326T/A330K) / M103202L889-SK1 (antibody, human IgG1, kappa, name in EU numbering, The label MY388 is printed for two different variants; also called MY388 (first of two rows with this label)) heavy: QVTLKESGPVLVKPTETLTLTCTVSGIDLSHDDISWVRQAPGKGLEWVGIISYAGSTYYASWAKGRLTISKDTSKNQVVLTMTNMDPVDTATYYCARGVPAYSHGGDLWGQGTLVTVSSASTKGPSVFPLAPSSKSTSGGTAALGCLVKDYFPEPVTVSWNSGALTSGVHTFPAVLQSSGLYSLSSVVTVPSSSLGTQTYICNVNHKPSNTKVDKKVEPKSCDKTHTCPPCPAPELLLGPSVFLFPPKPKDTLMISRTPEVTCVVVDVSDEDPEVKFNWYVDGVEVHNAKTKPREELYNSTYRVVSVLTVLHQDWLNGKEYKCKVSNTALPKPIEKTISKAKGQPREPQVYTLPPSREEMTKNQVSLTCLVKGFYPSDIAVEWESNGQPENNYKTTPPVLDSDGSFFLYSKLTVDKSRWQQGNVFSCSVMHEALHNHYTQKSLSLSP light: DIVMTQSPATLSLSPGERATLSCTSSQSVYHANWLSWFQQKPGQPPKLLIYWASTLAYGVPSRFSGSGSGTDFTLTISSLQPEDAATYYCAGGYGGGRYAFGQGTKVEIKRTVAAPSVFIFPPSDEQLKSGTASVVCLLNNFYPREAKVQWKVDNALQSGNSQESVTEQDSKDSTYSLSSTLTLSKADYEKHKVYACEVTHQGLSSPVTKSFNRGEC |  |  |  | 1600 | Kd [9]: 2.4 nM

More lines, main results first:

Row | KD fold (SG1 = 1) [1] [fold] | KD fold (SG1 = 1) [2] [fold] | KD fold (SG1 = 1) [3] [fold] | Kd [4] [nM] | Binder | further results
4 |  |  | 5 | 300 | M103205H795-MY529 / M103202L889-SK1 (antibody, human IgG1, kappa, name in EU numbering) heavy: QVTLKESGPVLVKPTETLTLTCTVSGIDLSHDDISWVRQAPGKGLEWVGIISYAGSTYYASWAKGRLTISKDTSKNQVVLTMTNMDPVDTATYYCARGVPAYSHGGDLWGQGTLVTVSSASTKGPSVFPLAPSSKSTSGGTAALGCLVKDYFPEPVTVSWNSGALTSGVHTFPAVLQSSGLYSLSSVVTVPSSSLGTQTYICNVNHKPSNTKVDKKVEPKSCDKTHTCPPCPAPEWLTGPSVFLFPPKPKDTLMISRTPEVTCVVVDVSDEDPEVKFNWYVDGVEVHNAKTKPREELYNSTYRVVSVLTVLHQDWLNGKEYKCKVSNKALPKPIEKTISKAKGQPREPQVYTLPPSREEMTKNQVSLTCLVKGFYPSDIAVEWESNGQPENNYKTTPPVLDSDGSFFLYSKLTVDKSRWQQGNVFSCSVMHEALHNHYTQKSLSLSP light: DIVMTQSPATLSLSPGERATLSCTSSQSVYHANWLSWFQQKPGQPPKLLIYWASTLAYGVPSRFSGSGSGTDFTLTISSLQPEDAATYYCAGGYGGGRYAFGQGTKVEIKRTVAAPSVFIFPPSDEQLKSGTASVVCLLNNFYPREAKVQWKVDNALQSGNSQESVTEQDSKDSTYSLSSTLTLSKADYEKHKVYACEVTHQGLSSPVTKSFNRGEC | 
5 |  | 3.7 | 2.3 |  | M103205H795-MY521 / M103202L889-SK1 (antibody, 'Q235L' copied as printed, probably Q295L) heavy: QVTLKESGPVLVKPTETLTLTCTVSGIDLSHDDISWVRQAPGKGLEWVGIISYAGSTYYASWAKGRLTISKDTSKNQVVLTMTNMDPVDTATYYCARGVPAYSHGGDLWGQGTLVTVSSASTKGPSVFPLAPSSKSTSGGTAALGCLVKDYFPEPVTVSWNSGALTSGVHTFPAVLQSSGLYSLSSVVTVPSSSLGTQTYICNVNHKPSNTKVDKKVEPKSCDKTHTCPPCPADELLTGPSVFLFPPKPKDTLMISRTPEVTCVVVDVSDEDPEVKFNWYVDGVEVHNAKTKPREELYNSTYRVVSVLTVLHQDWLNGKEYKCKVSNKALPKPIEKTISKAKGQPREPQVYTLPPSREEMTKNQVSLTCLVKGFYPSDIAVEWESNGQPENNYKTTPPVLDSDGSFFLYSKLTVDKSRWQQGNVFSCSVMHEALHNHYTQKSLSLSP light: DIVMTQSPATLSLSPGERATLSCTSSQSVYHANWLSWFQQKPGQPPKLLIYWASTLAYGVPSRFSGSGSGTDFTLTISSLQPEDAATYYCAGGYGGGRYAFGQGTKVEIKRTVAAPSVFIFPPSDEQLKSGTASVVCLLNNFYPREAKVQWKVDNALQSGNSQESVTEQDSKDSTYSLSSTLTLSKADYEKHKVYACEVTHQGLSSPVTKSFNRGEC | KD fold (SG1 = 1) [6]: 3.1 fold; Kd [7]: 3300 nM; Kd [8]: 290 nM

From patent US20250076311A1 (Chugai, published 2025)
